Data taken from patent US20220033501A1 (SHANGHAI PHARMAEXPLORER, published 2022).

Key:
[1] = target: T1, human TIM-3 on CHOK1 stable cell line (CHOK1-hTIM-3) (human, UniProt Q8TDQ0 22-301); experiment: FACS, CHOK1-hTIM-3 cells, 40 nM antibody
T1 sequence: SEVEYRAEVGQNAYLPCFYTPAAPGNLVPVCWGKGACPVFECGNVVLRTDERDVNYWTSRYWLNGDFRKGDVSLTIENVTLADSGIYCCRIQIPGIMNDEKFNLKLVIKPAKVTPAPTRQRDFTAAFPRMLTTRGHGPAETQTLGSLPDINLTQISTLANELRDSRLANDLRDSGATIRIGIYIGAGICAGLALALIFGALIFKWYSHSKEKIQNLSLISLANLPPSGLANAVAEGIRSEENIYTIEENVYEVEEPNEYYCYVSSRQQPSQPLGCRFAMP

[2] = target: T2, human TIM-3 extracellular domain protein with hFc tag (hTIM-3-hFc) (human, UniProt Q8TDQ0 22-200); experiment: ELISA, coated human TIM-3 ECD protein, 0.0001 nM antibody
T2 construct: not shown: human IgG Fc fragment (hFc) of the pCpC vector
T2 sequence: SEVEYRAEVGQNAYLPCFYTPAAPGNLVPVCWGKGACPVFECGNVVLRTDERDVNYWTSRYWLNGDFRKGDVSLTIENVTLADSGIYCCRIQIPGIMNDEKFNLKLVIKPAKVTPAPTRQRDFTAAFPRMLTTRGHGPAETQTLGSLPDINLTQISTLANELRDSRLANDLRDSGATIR

[3] = target: T2, human TIM-3 extracellular domain …; experiment: ELISA, coated human TIM-3 ECD protein, 0.0007 nM antibody
[4] = target: T2, human TIM-3 extracellular domain …; experiment: ELISA, coated human TIM-3 ECD protein, 0.0667 nM antibody
[5] = target: T3, murine TIM-3 extracellular domain protein with hFc tag (mTIM-3-hFc) (mouse, UniProt Q8VIM0 29-191); experiment: ELISA, coated mouse TIM-3 ECD protein, 0.6667 nM antibody
T3 construct: also called mouse TIM-3 extracellular domain protein; not shown: human IgG Fc fragment (hFc) of the pCpC vector
T3 chain: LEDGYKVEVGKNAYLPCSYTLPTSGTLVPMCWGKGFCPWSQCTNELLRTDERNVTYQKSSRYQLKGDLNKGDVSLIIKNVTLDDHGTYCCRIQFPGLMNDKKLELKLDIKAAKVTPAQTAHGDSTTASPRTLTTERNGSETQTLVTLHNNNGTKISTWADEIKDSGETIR

[6] = target: T4, monkey TIM-3 extracellular domain protein with hFc tag (cTIM-3-hFc) (monkey); experiment: ELISA, coated monkey TIM-3 ECD protein, 0.0667 nM antibody
T4 construct: not shown: human IgG Fc fragment (hFc) of the pCpC vector
T4 chain: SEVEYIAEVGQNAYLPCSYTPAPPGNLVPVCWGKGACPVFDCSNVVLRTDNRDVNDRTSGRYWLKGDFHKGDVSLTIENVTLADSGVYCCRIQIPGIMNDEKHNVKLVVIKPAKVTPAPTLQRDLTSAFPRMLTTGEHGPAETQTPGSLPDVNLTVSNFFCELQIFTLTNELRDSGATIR

B1: 39E5H1 fully human TIM-3 antibody (human IgG4, kappa) (antibody, V domains shown)
VH: EVQLVESGGGLVQPGGSLRLSCAASGFTFSSYWMSWVRQAPGKGLEWVANIKRGGSERYYVDSVKGRFTISGDNAKNSVYLQMNSLRAEDTAVYYCARGSNWFDPWGQGTLVTVSS
VL: ETVMTQSPAILSVSPGERATLSCRASQSVYSNLAWYQQKLGQAPRLLIYDASTRATGIPARFSGSGSGTEFTLTISSLQSEDFAVYYCQQYNNWPITFGQGTRLEIK
With B1 the Mean fluorescence intensity [1] was 264, the OD450 [2] was 0.08 and the OD450 [3] was 0.1. For the same binder, the OD450 [4] was 1.33, the OD450 [5] was 0.26 and the OD450 [6] was 1.37.
